Data: patent US20250027068

Target: pooled human IgG (human IgG1,2,3 and 4)

Protein | Enzyme Activity Endpoint Assay (purified): Fab′2 | Enzyme Activity Endpoint Assay (purified): Fc | Enzyme Activity Endpoint Assay (purified): IgG | Enzyme Activity Endpoint Assay (purified): scIgG | Enzyme Activity Endpoint Assay: Fab′2 | Enzyme Activity Endpoint Assay: Fc | Enzyme Activity Endpoint Assay: IgG | Enzyme Activity Endpoint Assay: scIgG
PRT-374 (protein) MSQTEDSESLQRLRDIEDFQAEKKKQNVVYTKWLDGVDVKDHDFRKIVDGNEAYYATPLLNGRGFYDINKDFNRDNDKCAAAVAANMFHYWLDRNRDNVDRFLRQNPEKHGIIELPDGQLKLSDFLNTYESDDGYRDKSKLFDFISENFNGPVWTDKLLDNYINGYAYNYKYGRTIEDSTKNTSKINFFKEVFNEKILTNNHSIRNQNELSVLLSEALYTGKAIGLSYGPAGLRHSLGHIISVWGADLDADGNVVAIYVTDSDDKKLTIGDERVGLKRYKISTDDEGRLRLTAYEETHNTGGQIRGLWTLDTGKQAWADYFDKTEQTGTDQAEQ | 985 ng/µL | 536 ng/µL | 0 ng/µL | 379 ng/µL | – | – | – | –
PRT-341 (protein) MTITSVWTKGVTPPTPEDFRENNEDVLHAPYLANQGWYDITKAFDGKDNLLCGAATAGNMLHWWFDQNKEEIERYLKKHPEKQKIIFNNQEWFDVKAAIDTKDSQTNSKLFNYFRDKAFPNLSARQLGVMPDLVLDMFINGYYLNLPKTQSTDVNRPYQDKDKRGGIFDAVFTRGDQTTLLTARHDLKNKGLNEISDLIKQELTEGKALALSHTYANVSINHVINLWGADFDAEGNLEAIYVTDSDANASIGMKKYAVGVNAHGKVAISAKKIEGDNIGAQVLGLFTLSTGQDIWQKLS | 832 ng/µL | 199 ng/µL | 0 ng/µL | 318 ng/µL | – | – | – | –
PRT-349 (protein) MSQTEDSESLQRLRDIEDFQAEKKDQNVVYTKWLDGVDVKDHDFRKIVDGNIAYYATPLLNGRGLYDINKDFNRDSDKCAAAVAANMFHYWLDINRDNVDRFLRQNPEKHGIIELPDGQLKLSDFLNTYESDHGYRDKSKLFDFISENFNGPVWTDKLLDNYINGYAYNYKYGRTIEDPTKNTSKINFFKEVFNEKILTNNHSIRNQNELSVLLSEALYTGKAIGLSYGPAGLRHSLGHIISVWGADLDADGNVVAIYVTDSDDKKLTIGDERVGLKRYKISTDDENRLRLTAYEETHNTGGQVRGLWTLDTGKYAWADYFDKTEQTGTDQAEQ | 677 ng/µL | 215 ng/µL | 0 ng/µL | 286 ng/µL | – | – | – | –
PRT-357 (protein) MSQTEDSESLQRLRDIEDFQAEKEKQNVVYTKWLDGVDVKDHDFRKIVDGNSAYYATPLLNGRGWYDINKDFNRDSDKCAAAVAANMFHYWLDRNRDNVDRFLRQNPEKHGIIELPDGQLKLSDFLNTYESDDGYRDKSKLFDFISNNFNGPVWTDKLLDNYINGYAYNYKYGRTIEDPTKNTSKINFFKEVFNEKILTNNHSIRNQNEFSVLLSEALYTGKAIGLSYGPAGLRHSLGHIISVWGADLDADGNVVAIYVTDSDDKKLTIGDERVGLKRYKISTDDEGRLRLTAYEETHNTGGQVRGLWTLDTGKQAWADYFDKTEQTGTDQAEQ | 724 ng/µL | 389 ng/µL | 0 ng/µL | 313 ng/µL | – | – | – | –
PRT-365 (protein) MSQTEDSESLQRLRDIEDFQAEKKKQNVVYTKWLDGVDVKDHDFRKIVDGNEAYYATPLLNGRGFYDINKDFNRDSDKCAAAVAANMFHYWLDRNRDNVDRFLRQNPEKHGIIELPDGQLKLSDFLNTYESDDGYRDKSKLFDFISENFNGPVWTDKLLDNYINGYAYNYKYGRLIEDPTKNTSKINFFKEVFNEKILTNNHSIRNQNELSVLLSEALYTGKAIGLSYGPAGTRHSLGHIISVWGADLDADGNVVAIYVTDSDDKKLTIGDERVGLKRYKISTDDEGRLRLTAYEETHNTGGQIRGLWTLDTGKQAWADYFDKTEQTGTDQAEQ | 735 ng/µL | 385 ng/µL | 0 ng/µL | 312 ng/µL | – | – | – | –
PRT-372 (protein) MSQTEDSESLQRLRDIEDFQAEKKKQNVVYTKWLDGVDVKDHDFRKIVDGNSAYYATPLLNGRGFYDINKDFNRDNDKCAAAVAANMFHYWLDRNRDNVDRFLRQNPEKHGIIELPDGQLKLSDFLNTYESDDGYRDKSKLFDFISENFNGPVWTDKLLDNYINGYAYNSKYGRTIEDSTKNTSKINFFKEVFNEKILTNNHSIRNQNEFSVLLIEALYTGKAIGLSYGPAGLRHGLGHIISVWGADLDADGNVVAIYVTDSDDKKLTIGDERVGLKRYKISTDDEGRLRLTAYEETHNTGGQIRGLWTLDTGKQAWADYFDKTEQTGTDQAEQ | – | – | – | – | 0 ng/µL | 218 ng/µL | 122 ng/µL | 560 ng/µL
PRT-456 (protein) MITSVWTKGVTPPTDFIKGEDVFHAPYKAGQGWYDITKAFDGGDDLLCGAATAGNMLHWWFDQNKDQIEAYLKEHPEKQKINFNGEQMFDVKEAIDTKDDQTNSELFNYFKEKAFPYLSTKHLGVFPDHVLDMFINGYRLSLTNHGPTPVKEGSKDPRGGIFDAVFTRGDQSKLLTSRHDLKNKTLNEISQLIKQELTEGKALALSHTYANVRINHVINLWGADFDAEGNLEAIYVTDSDSNASIGMKKYFVGVNSAGKVAISAKEIEDDNIGAQVLGLFTLSTGQDIWNQTNLEHHHHHH | – | – | – | – | 1170 ng/µL | 497 ng/µL | 0 ng/µL | 0 ng/µL
PRT-446 (protein) MVTSVWTKGVTPPTDFIKGEDVFHAPYKAGQGWYDITKTFNGKDDLLCGAATAGNMLHWWFDQNKDQIEAYLKEHPEKQKINFNGEQMFDVKEAIDTKDDQTNSKLFEYFKEKAFPYLSTKHLGVFPDHVLDMFINGYRLSLTNHGPTPVKEGSKDPRGGIFDAVFTRGDQSKLLTSRHDFKEKTLKEISDLIKQELTEGKALALSHTYANVRINHVINLWGADFDSNGNLEAIYVTDSDSNASIGMKKYFVGVNSAGKVAISAKEIEDDNIGAQVLGLFTLSTGQDIWNQTNLEHHHHHH | – | – | – | – | 1130 ng/µL | 427 ng/µL | 0 ng/µL | 0 ng/µL
PRT-480 (protein) MITSVWTKGVTPPTDFIYGEDVLHAPYKAGQGWYDITKAFDGGDDLLCGAATAGNMLHWWFDQNKEQIENYLKKHPEKQKINFNGEQMFDVKEAIDTKDSQTNSELFNYFKEKAFPYLSTKHLGVFPDHVIDMFINGYRLSLTNHGPTPVKRGSKDPRGGIFDAVFTRGDQSKLLTNRHDLKNKTLNEISQLIKQELTEGKALGISHTYANVRINHVINLWGADFDAEGNLEAIYVTDSDSNASIGMKKYFVGVNSNGKVAISAKEIEEDNIGAQVLGLFTLSTGQDIWNQTNLEHHHHHH | – | – | – | – | 846 ng/µL | 325 ng/µL | 0 ng/µL | 0 ng/µL
PRT-491 (protein) MVTSVWTKGVTPPTDFIYGEDVLHAPYKAGQGWYDITKTFNGKDNLLCGAATAGNMLHWWFDQNKEQIENYLKKHPEKQKIIFNNQELFDLKAAIDTKDSQLDSKLFEYFKEKAFPYLSTKHLGVFPDHVIDMFINGYRLSLTNHGPTPVKRGSKDKRGGIFDAVFTRGVQSKLLTNRHDLKNKTLKEISDLIKQELTEGKALGISHTYANVRINHVINLWGADFDAEGNLEAIYVTDSDTNASIGMKKYFVGVNSNGKVAISAKEIEEDNIGAQVLGLFTLSTGQDIWNQTNLEHHHHHH | – | – | – | – | 769 ng/µL | 260 ng/µL | 140 ng/µL | 331 ng/µL
PRT-468 (protein) MITSVWTKGVTPPTDFIKGEDVFHAPYKAGQGWYDITKAFDGGDDLLCGAATAGNMLHWWFDQNKDQIERYLKEHPEKQKINFNGEQMFDVKEAIDTKDSQTNSELFNYFKEKAFPYLSTKHLGVFPDHVLDMFINGYRLSLTNHGPTPVKEGSKDPRGGIFDAVFTRGDQSKLLTSRHDLKNKTLNEISQLIKQELTEGKALGLSHTYANVRINHVINLWGADFDAEGNLEAIYVTDSDSNASIGMKKYFVGVNSAGKVAISAKEIKEDNIGAQVLGLFTLSTGQDIWNQTNLEHHHHHH | – | – | – | – | 957 ng/µL | 385 ng/µL | 115 ng/µL | 66 ng/µL
PRT-458 (protein) MVTSVWTKGVTPPTDFIKGEDVFHAPYKAGQGWYDITKTFNGKDDLLCGAATAGNMLHWWFDQNKDQIERYLKEHPEKQKINFNGEQMFDVKEAIDTKDSQTDSKLFEYFKEKAFPYLSTKHLGVFPDHVLDMFINGYRLSLTNHGPTPVKEGSKDPRGGIFDAVFTRGDQSKLLTSRHDFKEKTLKEISDLIKQELTEGKALGLSHTYANVRINHVINLWGADFDSEGNLKAIYVTDSDSNASIGMKKYFVGVNSAGKVAISAKEIKEDNIGAQVLGLFTLSTGQDIWNQTNLEHHHHHH | – | – | – | – | 598 ng/µL | 224 ng/µL | 112 ng/µL | 226 ng/µL
PRT-512 (protein) MITSVWTKGVTPPAKFTQGEDVFHAPYVANQGWYDITKAFDGGDDLLCGAATAGNMLHWWFDQNKEEIEAYLKKHPEKQKIMFGDQELLDVRKVINTKDSQTNSALFNYFKDKAFPNLSARRLGVMPDLVLDMFINGYYLNVYKTQTTDVNRTYQTKDRRGGIFDAVFTRGDQSKLLTERHDLKNKTLKEISDLIKQELTEGKALGLSHTYANVRINHVINLWGADFDSNGNLEAIYVTDSDSNASIGMKKYFVGVNSAGKVAISAKEIKEDNIGAQVLGLFTLSTGQDIWNQTNLEHHHHHH | – | – | – | – | 884 ng/µL | 372 ng/µL | 31 ng/µL | 0 ng/µL
PRT-506 (protein) MITSVWTKGVTPPTDFIKGEDVFHAPYKAGQGWYDITKTFNGKDDLLCGAATAGNMLHWWFDQNKEEIEAYLKKHPEKQKIMFGDQELLDVRKVINTKDSQTNSALFNYFKDKAFPNLSARRLGVMPDLVLDMFINGYYLNVYKTQTTDVNRTYQTKDRRGGIFDAVFTRGDQSKLLTERHDFKEKTLKEISDLIKQELTEGKALGLSHTYANVRINHVINLWGADFDSNGNLEAIYVTDSDSNASIGMKKYFVGVNSAGKVAISAKEIKEDNIGAQVLGLFTLSTGQDIWNQTNLEHHHHHH | – | – | – | – | 1120 ng/µL | 453 ng/µL | 43 ng/µL | 0 ng/µL
